Source: PMC6297234, “aPKC controls endothelial growth by modulating c-Myc via FoxO1 DNA-binding ability”

Biological target: GST-FoxO1 DBD (Homo sapiens, UniProt Q12778 151-266)
Test: EMSA; 1 µM protein, 1 nM DNA, 1 ng/mL poly dI-dC; 20 mM Tris pH 8.0, 50 mM KCl, 5% glycerol, 2 mM DTT, 0.2 mM EDTA, 2 mM MgCl2, 0.1 mg/mL BSA, 1 ng/mL poly dI-dC; RT 30 min; 6% gel in 0.5X TBE at 4 °C
Conditions: protein: recombinant; tags: GST (pDEST15, N-terminal); blunt

Sequence of GST-FoxO1 DBD (Q12778 151-266): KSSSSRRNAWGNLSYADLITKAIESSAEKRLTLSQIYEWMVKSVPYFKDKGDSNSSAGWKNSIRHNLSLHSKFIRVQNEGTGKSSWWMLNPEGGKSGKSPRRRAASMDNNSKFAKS

B1: FoxO DBE duplex (dsDNA)
DNA 1: CAAAATGTAAACAAGA
DNA 2: TCTTGTTTACATTTTG
Does B1 bind?
Result: binds
